The target of the test is T1, HLA-A*01:01 (human).
T1 construct: MHC class I monomer first loaded with a UV-sensitive peptide (not identified) that is cleaved by UV irradiation and exchanged for the tested peptide; captured on streptavidin plates, detected with anti-β2m; also called peptide-receptive MHC molecules
As to the kind of experiment: UV-ligand exchange, anti-b2m ELISA. The text has this: Candidate peptides for T cell based therapies according to the present invention were further tested for their MHC binding capacity (affinity). The individual peptide-MHC complexes were produced by UV-ligand exchange, where a UV-sensitive peptide is cleaved upon UV-irradiation and exchanged with the peptide of interest as analyzed. Only peptide candidates that can effectively bind and stabilize the peptide-receptive MHC molecules prevent dissociation of the MHC complexes. To determine the yield of the exchange reaction, an ELISA was performed based on the detection of the light chain (β2m) of stabilized MHC complexes. The assay was performed as generally described in Rodenko et al. (Rodenko et al., 2006)
96 well MAXISorp plates (NUNC) were coated over night with 2 ug/ml streptavidin in PBS at room temperature, washed 4× and blocked for 1 h at 37° C. in 2% BSA containing blocking buffer. Refolded HLA-A*02:01/MLA-001 monomers served as standards, covering the range of 15-500 ng/ml. Peptide-MHC monomers of the UV-exchange reaction were diluted 100-fold in blocking buffer. Samples were incubated for 1 h at 37° C., washed four times, incubated with 2 ug/ml HRP conjugated anti-β2m for 1 h at 37° C., washed again and detected with TMB solution that is stopped with […]. Absorption was measured at 450 nm.
On the technique in general: In an ELISA, binding on a coated surface is turned into a signal by an enzyme label.

B1: EVVEGKEWGSFY (peptide)
peptide: EVVEGKEWGSFY
For B1, the peptide exchange yield lay in the range of 50 to 75%.

B2: NSNLKFLEV (peptide)
peptide: NSNLKFLEV
B2: the peptide exchange yield fell in the range of 20 to 50%.

B3: TFDKQIVLL (peptide)
peptide: TFDKQIVLL
With B3, the peptide exchange yield was in the range of 20 to 50%.

B4: RSDIGEFEW (peptide)
peptide: RSDIGEFEW
B4 registered a peptide exchange yield of 20 to 50%.

B5: LEDGIEQSAY (peptide)
peptide: LEDGIEQSAY
Molecule B5 showed a peptide exchange yield of 20 to 50%.

B6: ISEAPLTEV (peptide)
peptide: ISEAPLTEV
In turn, B6 showed a peptide exchange yield of 20 to 50%.

B7: EAYLERIGY (peptide)
peptide: EAYLERIGY
Consider B7, for which the peptide exchange yield lay within 50 to 75%.

B8: PIMSSSQALY (peptide)
peptide: PIMSSSQALY
B8 gave a peptide exchange yield of 20 to 50%.

B9: TLDSTRTLY (peptide)
peptide: TLDSTRTLY
In turn, B9 registered a peptide exchange yield greater than 75%.

B10: KASSVSAEDGY (peptide)
peptide: KASSVSAEDGY
On to B10, for which the peptide exchange yield was in the range of 20 to 50%.

B11: IEKFAVLY (peptide)
peptide: IEKFAVLY
In turn, B11 gave a peptide exchange yield of 50 to 75%.

B12: HSIEVFTHY (peptide)
peptide: HSIEVFTHY
Turning to B12, the peptide exchange yield lay within 20 to 50%.

B13: FLKVTGYDKDDY (peptide)
peptide: FLKVTGYDKDDY
B13: the peptide exchange yield was in the range of 20 to 50%.

B14: QSEKEPGQQY (peptide)
peptide: QSEKEPGQQY
With B14, the peptide exchange yield lay in the range of 50 to 75%.

B15: RTIEGDFLW (peptide)
peptide: RTIEGDFLW
Molecule B15 came in with a peptide exchange yield of 20 to 50%.

B16: SQHIFTVSY (peptide)
peptide: SQHIFTVSY
On to B16, for which the peptide exchange yield is 20 to 50%.

B17: HVSGQMLYF (peptide)
peptide: HVSGQMLYF
In turn, B17 gave a peptide exchange yield of 20 to 50%.

B18: RRLNFSGFGY (peptide)
peptide: RRLNFSGFGY
Turning to B18, the peptide exchange yield is 50 to 75%.

B19: STIDFRAGF (peptide)
peptide: STIDFRAGF
The molecule B19 returned a peptide exchange yield of 20 to 50%.

B20: TTENSGNYY (peptide)
peptide: TTENSGNYY
Molecule B20 displayed a peptide exchange yield greater than 75%.

B21: YIGLKGLYF (peptide)
peptide: YIGLKGLYF
B21 returned a peptide exchange yield of 20 to 50%.

B22: YEVDTKLLSL (peptide)
peptide: YEVDTKLLSL
Molecule B22 gave a peptide exchange yield of 20 to 50%.

B23: TTDPKKFQY (peptide)
peptide: TTDPKKFQY
Regarding B23, the peptide exchange yield is greater than 75%.

B24: ASDHWRGRY (peptide)
peptide: ASDHWRGRY
Take B24: the peptide exchange yield lay within 50 to 75%.

B25: SADEAHGLL (peptide)
peptide: SADEAHGLL
In turn, B25 yielded a peptide exchange yield of 20 to 50%.

B26: IPVHDSVGVTY (peptide)
peptide: IPVHDSVGVTY
Molecule B26 had a peptide exchange yield of 50 to 75%.

B27: TPIPFDKILY (peptide)
peptide: TPIPFDKILY
On to B27, for which the peptide exchange yield fell in the range of 20 to 50%.

B28: ITDVGPGNY (peptide)
peptide: ITDVGPGNY
B28 gave a peptide exchange yield of 50 to 75%.

B29: STALSILLL (peptide)
peptide: STALSILLL
Molecule B29 displayed a peptide exchange yield of 20 to 50%.

B30: AQVQDTGRY (peptide)
peptide: AQVQDTGRY
B30 displayed a peptide exchange yield of 50 to 75%.

B31: LTWAHSAKY (peptide)
peptide: LTWAHSAKY
B31 displayed a peptide exchange yield of 50 to 75%.

B32: EVTDRNMLAF (peptide)
peptide: EVTDRNMLAF
Consider B32, for which the peptide exchange yield lay within 50 to 75%.

B33: SAPSSSGSPLY (peptide)
peptide: SAPSSSGSPLY
B33 registered a peptide exchange yield of 20 to 50%.

B34: GTKQWVHARY (peptide)
peptide: GTKQWVHARY
B34 returned a peptide exchange yield of 10 to 20%.

B35: LCATVCGTEQY (peptide)
peptide: LCATVCGTEQY
On to B35, for which the peptide exchange yield lay in the range of 20 to 50%.

B36: FQYELRELY (peptide)
peptide: FQYELRELY
B36 displayed a peptide exchange yield greater than 75%.

B37: DAVAPGREY (peptide)
peptide: DAVAPGREY
In turn, B37 displayed a peptide exchange yield of 20 to 50%.

B38: VVFDKSDLAKY (peptide)
peptide: VVFDKSDLAKY
B38 registered a peptide exchange yield of 20 to 50%.

B39: LLKAKDILY (peptide)
peptide: LLKAKDILY
Turning to B39, the peptide exchange yield was in the range of 20 to 50%.

B40: YLEDRPLSQ (peptide)
peptide: YLEDRPLSQ
As for B40, the peptide exchange yield was in the range of 20 to 50%.

B41: GLIEVVTGY (peptide)
peptide: GLIEVVTGY
B41: the peptide exchange yield was greater than 75%.

B42: RTHIGYKVY (peptide)
peptide: RTHIGYKVY
Regarding B42, the peptide exchange yield was in the range of 50 to 75%.

B43: SIEVFTHY (peptide)
peptide: SIEVFTHY
B43 gave a peptide exchange yield of 50 to 75%.

B44: NEIDIHSIYFY (peptide)
peptide: NEIDIHSIYFY
Molecule B44 showed a peptide exchange yield of 20 to 50%.

B45: LSDAVHVEF (peptide)
peptide: LSDAVHVEF
The molecule B45 displayed a peptide exchange yield of 50 to 75%.

B46: TVFDENLSRY (peptide)
peptide: TVFDENLSRY
As for B46, the peptide exchange yield lay within 20 to 50%.

B47: YTDFVGEGLY (peptide)
peptide: YTDFVGEGLY
For the molecule B47, the peptide exchange yield lay within 50 to 75%.

B48: ITDTLIHLM (peptide)
peptide: ITDTLIHLM
Take B48: the peptide exchange yield lay in the range of 50 to 75%.

B49: ISEDKSISF (peptide)
peptide: ISEDKSISF
Molecule B49 showed a peptide exchange yield of 20 to 50%.

B50: ASCRSSAEY (peptide)
peptide: ASCRSSAEY
On to B50, for which the peptide exchange yield is greater than 75%.

B51: ITDTLIHL (peptide)
peptide: ITDTLIHL
As for B51, the peptide exchange yield fell in the range of 20 to 50%.

B52: VPFNLITEY (peptide)
peptide: VPFNLITEY
The molecule B52 showed a peptide exchange yield of 10 to 20%.

B53: PVHDSVGVTY (peptide)
peptide: PVHDSVGVTY
Consider B53, for which the peptide exchange yield lay in the range of 20 to 50%.

B54: YTEFVDATFTK (peptide)
peptide: YTEFVDATFTK
The molecule B54 returned a peptide exchange yield greater than 75%.

B55: HTMEVTVY (peptide)
peptide: HTMEVTVY
B55 displayed a peptide exchange yield of 50 to 75%.

B56: FTTLSDLQTNMA (peptide)
peptide: FTTLSDLQTNMA
For B56, the peptide exchange yield was in the range of 20 to 50%.

B57: NTHTGTRPY (peptide)
peptide: NTHTGTRPY
Turning to B57, the peptide exchange yield was in the range of 20 to 50%.

B58: YLDSSKPAVY (peptide)
peptide: YLDSSKPAVY
For B58, the peptide exchange yield was in the range of 50 to 75%.

B59: VSERTGISY (peptide)
peptide: VSERTGISY
B59 showed a peptide exchange yield of 50 to 75%.

B60: AVAAAAGASLY (peptide)
peptide: AVAAAAGASLY
The molecule B60 returned a peptide exchange yield of 20 to 50%.

B61: IGDKVDAVY (peptide)
peptide: IGDKVDAVY
In the case of B61, the peptide exchange yield fell in the range of 20 to 50%.

B62: SPAKQFNIY (peptide)
peptide: SPAKQFNIY
B62 came in with a peptide exchange yield of 50 to 75%.

The values are drawn from patent publication US20200087364A1 (IMMATICS BIOTECHNOLOGIES, published 2020).
